Assay results taken from US20260234242A1 (HAINAN SIMCERE ZAIMING PHARMACEUTICAL, published 2026).

T1: human CDH6 on tumor cells (OVCAR3 cells, PA-1 cells) (human, UniProt P55285 54-790)
T1 sequence: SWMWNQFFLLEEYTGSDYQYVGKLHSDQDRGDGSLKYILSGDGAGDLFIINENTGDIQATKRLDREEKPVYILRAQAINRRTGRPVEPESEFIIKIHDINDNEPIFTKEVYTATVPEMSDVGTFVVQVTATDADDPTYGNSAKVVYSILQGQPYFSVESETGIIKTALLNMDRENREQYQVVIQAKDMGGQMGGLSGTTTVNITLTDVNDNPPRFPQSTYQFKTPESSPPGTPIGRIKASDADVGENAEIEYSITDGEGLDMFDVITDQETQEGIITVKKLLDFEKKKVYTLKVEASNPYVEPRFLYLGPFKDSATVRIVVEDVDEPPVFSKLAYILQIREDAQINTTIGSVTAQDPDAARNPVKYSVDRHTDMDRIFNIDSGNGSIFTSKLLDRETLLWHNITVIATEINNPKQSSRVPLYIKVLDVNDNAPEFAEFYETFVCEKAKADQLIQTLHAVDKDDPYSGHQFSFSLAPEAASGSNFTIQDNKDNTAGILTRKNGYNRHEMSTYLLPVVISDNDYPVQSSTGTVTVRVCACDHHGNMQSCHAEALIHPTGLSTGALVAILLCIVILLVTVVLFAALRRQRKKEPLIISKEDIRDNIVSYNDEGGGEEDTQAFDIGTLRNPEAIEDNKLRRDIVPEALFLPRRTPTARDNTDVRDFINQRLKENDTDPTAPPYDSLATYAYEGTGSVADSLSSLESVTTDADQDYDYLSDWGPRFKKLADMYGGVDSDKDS

T2: his-tagged human CDH6 extracellular region protein (hCDH6 ECD-his) (human, UniProt P55285 19-615)
T2 construct: also called Human CDH6-his; hCDH6-his; not shown: his tag
T2 sequence: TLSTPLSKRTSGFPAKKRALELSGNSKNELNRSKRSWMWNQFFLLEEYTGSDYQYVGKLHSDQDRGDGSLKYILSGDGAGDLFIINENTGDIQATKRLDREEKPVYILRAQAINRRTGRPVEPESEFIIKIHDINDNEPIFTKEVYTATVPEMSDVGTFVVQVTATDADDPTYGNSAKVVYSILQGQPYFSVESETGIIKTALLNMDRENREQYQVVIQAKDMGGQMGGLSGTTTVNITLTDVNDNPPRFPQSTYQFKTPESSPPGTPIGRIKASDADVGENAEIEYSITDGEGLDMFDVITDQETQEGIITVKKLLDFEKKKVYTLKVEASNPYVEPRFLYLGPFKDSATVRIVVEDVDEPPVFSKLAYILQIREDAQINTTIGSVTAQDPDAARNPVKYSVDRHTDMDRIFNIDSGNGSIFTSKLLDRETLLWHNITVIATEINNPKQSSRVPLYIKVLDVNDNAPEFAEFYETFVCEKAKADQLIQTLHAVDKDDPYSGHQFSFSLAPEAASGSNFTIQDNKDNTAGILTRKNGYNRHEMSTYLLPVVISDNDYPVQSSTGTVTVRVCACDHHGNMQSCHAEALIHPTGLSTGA


Assays:
[1] = biological target: T1, human CDH6 on tumor cells (OVCAR3 …); assay: FACS, PA-1 cells
Procedure: OVCAR3 cells with high expression of CDH6 and PA-1 cells with moderate expression of CDH6 were used to detect the binding activity of the antibodies to the cells. […] The cells were washed once with PBS, counted, resuspended to 2×10⁶ cells/mL in an FACS buffer (PBS+2% FBS), and then added to a 96-well plate at 50 μL/well. The chimeric antibodies were diluted with FACS buffer (PBS+2% FBS) and added to the 96-well plate at 50 μL/well, and the plate was incubated at 4° C. for 1 h. […] The dilution was added to the 96-well plate at 50 μL/well, and the plate was incubated at 4° C. for 1 h. After the plates were centrifuged and washed 2 times with PBS, the cells were resuspended in an FACS buffer. The mean fluorescence intensity (MFI) was measured using FACS Canton II (BD). Analysis was performed by the GraphPad Prism software, data were fitted, and EC50 values were calculated. The chimeric antibodies tested had strong binding to both OVCAR3 cells and PA-1 cells.
According to the above sequences, heavy chain (HC) and light chain (LC) plasmids were constructed (the nucleic acid sequences encoding the VH and VL of the antibodies were recombined into an expression vector carrying a signal peptide (SEQ ID NO: 132, […]) and a heavy chain constant region/light chain constant region sequence to obtain recombinant plasmids expressing VH-CH1-Fc/VL-CL). According to the expression and purification methods in Example 2, the hCDH6-14 humanized antibodies were obtained, and the binding activity of the humanized antibodies was detected by ELISA and FACS (see 2.2 and 2.3 for the method).

[2] = biological target: T2, his-tagged human CDH6 extracellular …; assay: ELISA, coated antigen
Procedure: Human CDH6 protein (hCDH6 ECD-his, conventionally synthesized), monkey CDH6 protein (cynoCDH6 ECD-his, conventionally synthesized; the cynoCDH6 ECD sequence was derived from Uniprot #A0A2K5TW62 (19-615)), and murine CDH6 protein (mCDH6 ECD-his, conventionally synthesized; the mCDH6 ECD sequence was derived from Uniprot #P97326 (19-615)) were diluted with PBS to a final concentration of 1 μg/mL, and added to a 96-well ELISA plate at 100 μL/well. The plate was incubated at 4° C. overnight. The next day, the plate was washed 3 times with a plate washing solution (PBS+0.01% (v/v) Tween 20), and a blocking buffer (PBS+0.01% (v/v) Tween 20+2% (w/w) BSA) was added for blocking at room temperature for 2 h. The blocking buffer was discarded, and the plate was washed 3 times. The chimeric antibodies were diluted with 1% BSA+PBS (purchased from Cytiva, Cat. No. SH30264.01) and added to the 96-well plate at 50 μL/well. After incubation at 37° C. for 2 h, the plate was washed 3 times with a plate washing solution. […] The plate was incubated at 37° C. for 1 h and then washed 5 times with a plate washing solution. A TMB substrate (purchased from Seracare, Cat. No. 5120-0077) was added at 50 μL/well and incubated at room temperature for 10 min, then a stop solution (1.0 N HCl) was added at 50 μL/well. OD450 nm values were read using a microplate reader (Biotek). Analysis was performed by the GraphPad Prism software, data were fitted, and EC50 values were calculated. The chimeric antibodies tested all had strong binding to the human CDH6 protein, the monkey CDH6 protein, and the murine CDH6 protein.
According to the above sequences, heavy chain (HC) and light chain (LC) plasmids were constructed (the nucleic acid sequences encoding the VH and VL of the antibodies were recombined into an expression vector carrying a signal peptide (SEQ ID NO: 132, […]) and a heavy chain constant region/light chain constant region sequence to obtain recombinant plasmids expressing VH-CH1-Fc/VL-CL).

Binder | EC50 [1] [pM] | Max MFI [1] [MFI] | EC50 [2] [pM] | Max OD450 [2] [OD450]
hCDH6-14-H1L1 (antibody, V domains shown, Humanized) VH: EVQLVQSGAEVKKPGASVKVSCKASGYTFTDNYINWVRQAPGQRLEWMGWIYPGTGNSYYNEKFKGRVTITVDTSASTAYMELSSLRSEDTAVYYCASSYGDSFDYWGQGTTVTVSS VL: DIQMTQSPSSLSASVGDRVTITCRASQDIRNYLNWYQQKPGKAFKLLISYTSRLHSGVPSRFSGSGSGTDFTFTISSLQPEDIATYYCQQYSQLPWTFGGGTKVEIK | 260 | 3680 | 59 | 2.69
hCDH6-14-H1L2 (antibody, V domains shown, Humanized) VH: EVQLVQSGAEVKKPGASVKVSCKASGYTFTDNYINWVRQAPGQRLEWMGWIYPGTGNSYYNEKFKGRVTITVDTSASTAYMELSSLRSEDTAVYYCASSYGDSFDYWGQGTTVTVSS VL: DIQMTQSPSSLSASVGDRVTITCRASQDIRNYLNWYQQKPGGAPKLLISYTSRLHSGVPSRFSGSGSGTDFTFTISSLQPEDIATYYCQQYSQLPWTFGGGTKVEIK | 220 | 3600 | 128 | 2.84
hCDH6-14-H3L1 (antibody, V domains shown, Humanized) VH: EIQLVQSGAEVKKPGASVKVSCKASGYTFTDNYINWVRQAPGQRLEWMGWIYPGTGNSYYNEKFKGRVTLTVDTSASTAYMELSSLRSEDTAVYYCASSYGDSFDYWGQGTTVTVSS VL: DIQMTQSPSSLSASVGDRVTITCRASQDIRNYLNWYQQKPGKAFKLLISYTSRLHSGVPSRFSGSGSGTDFTFTISSLQPEDIATYYCQQYSQLPWTFGGGTKVEIK | 260 | 3490 | 96 | 2.62
hCDH6-14-H3L2 (antibody, V domains shown, Humanized) VH: EIQLVQSGAEVKKPGASVKVSCKASGYTFTDNYINWVRQAPGQRLEWMGWIYPGTGNSYYNEKFKGRVTLTVDTSASTAYMELSSLRSEDTAVYYCASSYGDSFDYWGQGTTVTVSS VL: DIQMTQSPSSLSASVGDRVTITCRASQDIRNYLNWYQQKPGGAPKLLISYTSRLHSGVPSRFSGSGSGTDFTFTISSLQPEDIATYYCQQYSQLPWTFGGGTKVEIK | 230 | 3490 | 74 | 2.63
hCDH6-14-H4L1 (antibody, V domains shown, Humanized) VH: EVQLVQSGAEVKKPGASVKVSCKASGYTFTDNYINWVRQAPGQGLEWMGWIYPGTGNSYYNEKFKGRVTITVDTSASTAYMELSSLRSEDTAVYYCASSYGDSFDYWGQGTTVTVSS VL: DIQMTQSPSSLSASVGDRVTITCRASQDIRNYLNWYQQKPGKAFKLLISYTSRLHSGVPSRFSGSGSGTDFTFTISSLQPEDIATYYCQQYSQLPWTFGGGTKVEIK | 250 | 3820 | 52 | 2.62
hCDH6-14-H2L1 (antibody, V domains shown, Humanized) VH: EIQLVQSGAEVKKPGASVKVSCKASGYTFTDNYINWVRQAPGQRLEWMGWIYPGTGNSYYNEKFKGRVTITVDTSASTAYMELSSLRSEDTAVYYCASSYGDSFDYWGQGTTVTVSS VL: DIQMTQSPSSLSASVGDRVTITCRASQDIRNYLNWYQQKPGKAFKLLISYTSRLHSGVPSRFSGSGSGTDFTFTISSLQPEDIATYYCQQYSQLPWTFGGGTKVEIK | 250 | 3560 | 76 | 2.65
hCDH6-14-H2L2 (antibody, V domains shown, Humanized) VH: EIQLVQSGAEVKKPGASVKVSCKASGYTFTDNYINWVRQAPGQRLEWMGWIYPGTGNSYYNEKFKGRVTITVDTSASTAYMELSSLRSEDTAVYYCASSYGDSFDYWGQGTTVTVSS VL: DIQMTQSPSSLSASVGDRVTITCRASQDIRNYLNWYQQKPGGAPKLLISYTSRLHSGVPSRFSGSGSGTDFTFTISSLQPEDIATYYCQQYSQLPWTFGGGTKVEIK | 270 | 3930 | 98 | 2.54
